# B1: ZER1 (parent)
# chain: FDGPEAWGVCEPQREEVEERMWAA
# Variants of: B1
# Assay: protein stability index of a GFP-peptide fusion (GPS, HEK-293T) (PSI 1-6); higher = more stable
# Conditions: c terminus: a fixed tail appended
# 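Note: lentivirally expressed fusions sorted by FACS into six bins by GFP to DsRed ratio, PSI derived from sequencing read proportions per bin multiplied by bin number.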
row,Variant,protein stability index
1,V17Q,2.55
2,V17N,3.28
3,V17A,2.27
4,V17Y,2.75
5,V17D,2.61
6,V17F,3.62
7,V17K,2.41
8,V17R,2.24
9,V17H,2.77
10,V17L,2.34
11,V17T,2.47
12,V17W,2.44
13,V17M,2.26
14,V17E,3.18
15,V17G,2.36
16,V17S,2.64
17,V17I,2.26
18,V17P,2.65
19,V17C,2.3
20,R20L,2.55
21,R20H,2.55
22,R20Y,2.5
23,R20M,3.09
24,R20N,2.75
25,R20K,2.34
26,R20V,2.67

row,Variant,protein stability index
1,R20D,2.94
2,R20C,2.6
3,R20Q,2.77
4,R20P,2.92
5,R20E,3.17
6,R20W,2.15
7,R20F,2.65
8,R20A,3.1
9,R20I,2.27
10,R20S,2.79
11,R20T,3.23
12,R20G,2.96
13,W22D,3.75
14,W22F,2.57
15,W22G,2.81
16,W22C,3.17
17,W22N,3.17
18,W22A,2.79
19,W22H,2.62
20,W22P,3.57
21,W22I,2.63
22,W22S,3.25
23,W22R,3.59
24,W22L,2.42
25,W22Y,3.73
26,W22K,2.75

row,Variant,protein stability index
1,W22E,3.79
2,W22V,3.44
3,W22T,3.4
4,W22M,2.61
5,W22Q,2.73
6,A24K,2.78
7,A24N,2.76
8,A24L,2.98
9,A24Q,2.86
10,A24W,2.15
11,A24R,2.76
12,A24M,2.51
13,A24E,2.64
14,A24T,2.49
15,A24P,3.05
16,A24F,1.96
17,A24I,2.13
18,A24V,2.53
19,A24H,2.56
20,A24S,2.7
21,A24C,3.55
22,A24Y,2.49
23,A24D,2.88
24,A24G,3.03
25,A23I,2.64
26,A23M,3.08

row,Variant,protein stability index
1,A23D,3.41
2,A23K,2.77
3,A23L,2.23
4,A23E,2.44
5,A23R,2.61
6,A23F,2.16
7,A23S,2.62
8,A23H,2.58
9,A23C,2.46
10,A23Y,2.04
11,A23G,2.9
12,A23N,2.93
13,A23Q,2.61
14,A23P,2.66
15,A23W,2.3
16,A23V,2.47
17,A23T,2.67
18,E16V,2.02
19,E16W,1.63
20,E16Y,2.11
21,E19D,2.48
22,E19R,2.35
23,E19S,2.45
24,E19T,2.87
25,E19W,2.05
26,E19P,2.21

row,Variant,protein stability index
1,E19Y,1.94
2,E19N,2.4
3,E19G,2.15
4,E19M,2.22
5,E19H,1.91
6,E19A,2.68
7,E19C,2.05
8,E19Q,2.55
9,E19V,1.98
10,E19I,2.09
11,E19K,3.35
12,E19L,2.17
13,E19F,2.1
14,M21C,2.46
15,M21S,2.38
16,M21A,3.06
17,M21K,2.76
18,M21P,2.47
19,M21V,3.45
20,M21G,3.27
21,M21T,2.4
22,M21I,2.63
23,M21W,2.46
24,M21L,2.71
25,M21Y,2.39
26,M21F,2.24

row,Variant,protein stability index
1,M21Q,2.89
2,M21N,2.2
3,M21H,2.21
4,M21R,2.69
5,M21D,3.16
6,M21E,3.56
7,E18G,3.36
8,E18V,2.12
9,E18W,2.04
10,E18R,2.53
11,E18L,2.11
12,E18C,2
13,E18N,1.92
14,E18K,1.57
15,E18I,2.21
16,E18Q,1.95
17,E18M,1.84
18,E18A,2.27
19,E18F,2.5
20,E18S,2.52
21,E18D,2.68
22,E18H,3.04
23,E18P,2.69
24,E18Y,2.08
25,E18T,2.62

# From the supplement of paper PMC10567573
